From the DeepSol protein solubility set

Test: soluble on expression in E. coli; label from the status in PepcDB or PDB records

Sequence | soluble on expression in E. coli
MRRFQRSTVIDAPRELVWAFHEQADVLEQLTPPWLPVEVVRREGGLGPGAVSEFRLWLGPVPIRWVATHNDDYEPGRCFCDRQSQGPFADWLHRHIFSREGDRTRLIDEVEYALPGGWLPELSVGPVVDAQLERLFAYRQQVTKQWCESRRDAFLQSNRTTKGLQSLLEHHHHHH | soluble
MRSKGFLHLDTEIVVPFFDVDMMNIVWHGHYVKYLEVARCALLDHIGHNYMQMLESGYGWPVIDLQLRYVRSAVFGQKLNVRASLVEWENRLKINYLITDADTGERLTRASTVQVAVDRDSHEMQLASPQVFIDAVKRALPLEHHHHHH | soluble
MRSKYIVIEGLEGAGKTTARNVVVETLEQLGIRDMVFTREPGGTQLAEKLRSLLLDIKSVGDEVITDKAEVLMFYAARVQLVETVIKPALANGTWVIGDRHDLSTQAYQGGGRGIDQHMLATLRDAVLGDFRPDLTLYLDVTPEVGLKRARARGELDRIEQESFDFFNRTRARYLELAAQDKSIHTIDATQPLEAVMDAIRTTVTHWVKELDA | soluble
MRSMTDVRRYWISLLRKICEMPLELCASDRLKKSMPVEGKKSEERRKFTHLELLGRIFCGISPFLELNRESPSTDPEERKIATRLSEFAVKSLDVATNPNCKDYMNFKEGRQPLVDAAFLVEAILRAPKVLWEDLDVSTKKRLIRELKATRKIEPYFSNWLLFSAMIETFFFFAGEEWDSTKVDLILKNVESWYKGDGAYGDGPFFRWDYYNSFVIYPMTIDVLRIISEEKTEWKELYVKVLRRAQRYAVVLERMISPEGTFPIIGRSITYRTAVFHLLSQLSLLHLLPASLSPAQVRCALTAVLRRIFENPSTFDENGWLKIGVIGSQPSLGEEYITTGSLYLCTTVFLPLGLPTSDPFWRDPCKKWTNKKVWEGEDVAPDRALEDLEHHHHHH | soluble
MRTLGLDLGTKTLGVAVSDELGLTAQGLETIAIDTERGDYGLKRLRAIIDEYGVDTIVVGWPKNMNGTLGPRAEASERFAAKLREEFSLPVVLRDERLSTMAAERMLIAADVSRKKRRKVIDKMAAAVILQSYLDSKR | not soluble
MRTNSEIISLIQSKVEERKMSMSELARNVGIAKSTMSRYFNKTREFPLNRADDFAKALNISTEFLLGIDLNSEVDGSELLGIYRELEEQRRVIVLDTAKEQLEEQTKIINFSDKKTDIEDIFEVKGTTFAAAASGFGRGFEADDYDTYTVYTDEEPPHYDYAIGIRGDSMLPKYEQGDMLYIVDKGMSTYSGQLCIVVHNGNTYFKKVYTEHDGLRLVSLNKKYSDIFIGYPPAEDTYIKIYDVVGSFTPIEF | not soluble
MRTSIATVCLSGTLAEKLRAAADAGFDGVEIFEQDLVVSPHSAEQIRQRAQDLGLTLDLFQPFRDFEGVEEEQFLKNLHRLEEKFKLMNRLGIEMILLCSNVGTATINDDDLFVEQLHRAADLAEKYNVKIAYEALAWGKFVNDFEHAHALVEKVNHKALGTCLDTFHILSRGWETDEVENIPAEKIFFVQLADAPKLSMDILSWSRHHRVFPGEGDFDLVKFMVHLAKTGYDGPISLEIFNDSFRKAEVGRTAIDGLRSLRWLEDQTWHALNAEDRPSALELR | not soluble
MRVALFITCLADHFYPKAGVAPVRLLRALGVKVDFPKGQTCCGQPAFNAGYWDEARPLAKRTLEVFEEAEYVVLPSGSCTSMVKNHYPELLPGNREALAMAEKTYELSQFLVRVLGVEKLGEGLKGRRVAYHHGCHALRELGVREEPLLLLQNAGAEVLPWEAWEECCGFGGLFSVKLPEVSLAMADRKLATLPKAEVLTSTDAGCLLHLAGRLGKKGENLRVAPLATLLWEAYAG | soluble
MRVHVPAQDAREAVRQAAATTGDADVLSETDRRLLATAHELDGTLVSDDYAMQNVAAELAVTVESISQDGITERRDWRLQCQGCGREFDDTDHDRCPVCGSPLERKNPSLEHHHHHH | not soluble
MRVLVLCTHNSARSQMAEAWLKHFARELGVDLEVHSAGTEKAFVKEEAKRVMAEVGLDLSGHFSKTLLEVPDPWDFGLVLTVCDQAKEACPAYPARTERRHVSFPDPTGKPLEEWRKVRDALGRMARFLVEALKEGRLPSDEELRQAARL | soluble
MRVQPVTNCEKAVILEALKIGKRFDFRSLEEFRDVKLVVGAEVGTAICTIGNTKVMAAVSAEIAEPSSMRPHKGVINIDVDLSPMANYANEHDRLGSKGMELIRLLELIIRDSRCIDVEALCIRAGKEIWKIRVDVRILDEDGSLLDCACLAAITALQHFRRPNVTLEPHHTLIYSEYEKAPVPLNIYHMPICTTIGLLDKGQIVVIDPTDKETACLDGSIVVACNKRREVCALHQSTNLILSTKQIERCVKLAMARAEALTAVVSDVIKQDQIERSAFKRPDGFAITTPSLILTAGTTASRQIRAPVIKTEPESFTQRSLYQPSVILNENPLSVGSVKQEDVDEETLLAEQLTTIQNSVGQVEVTEKQTVAVSSRKREVEEVNDLLDGLDDDDEEEEVQTMTLGSETVLNDVPMEEAPDAEDSLVNAKKKKKK | not soluble
MRVVLAPMEGVLDYRMRDLLTQVGSYDLCVTEFIRVVDQVLPDRVFHRYCPELIDADVYGSCTKAGTPVRVQLLGQYPEYMAENAAKVIELGSSGIDLNFGCPSKTVNKSRGGSILLKDPENLYQIIKAVKEAVPSDTIVSAKIRLGYEDKTLAIENGQAVEAAGANELTIHARTKLEGYKPPAHWHWIAKVKNAINIPVIANGEIWNLEDAIKCREISGCTDLMVGRGALTIPNLGQVIKQESDNMPWLEVRAILSAYTEFETHGDKSKYYCNRIKQWLKYLKSHYKEADVLFDEIRRLKTAEGIRAAL | not soluble
MRWEELSEQPCSLARVLAILGDRWTLLVLRDCFLGVRRFDDFERSLGVTRHVLADRLKRLVEAEILAKVPYQERPLREEYRLTEKGMELYPAILSLVNWGDRHLAGVEGPPLEHVHKHCGQHMHGVLVCSECGEPLHARDVTVREGLFWKGRLLRRG | not soluble
MRWNRMNPFGSYKKVVSARSTLKEVLKKAQDGGIVSTAFIYGLENNLLDGVIVADNAGEFKAVPKVATTPEEVLEAAGTKYTVCPNISVLKSAVREYGCEKIGVVGTPCQVRAVRKLMKYPVGFRHVPDKIALIIGIFCMENFPYYGLKLIVEEHCGVKMEDVVKMDIGKGKFWVYTRWGETKAIKLKETHPYEQIACHVCTDYTAELADISTGSVGSPDGWSTVFIRTAKGEEIFNKMVEDGYLEVKPIEEVKPGLGLVEKLALQKKEKNMKEIEHRKELGLPIPYLEHHHHHH | soluble
MRWVKAGELPMEAAYGATVSLPDRLIFIGGSNSSDRFSSVLSFSFDCMKDSGLICETLPPLPHAVDNMSATLLGDTLYVLGGNRNGIPSSSMFSLCLDNYSAGWTEVPFPGRPRVQPVCSSLLGKLYVFGGFTSGGDASVSTDGLCYHPESGQWQVVKAPLTTKGEPLTLTGGASVSYGDVLLICAGGVNRDIFEDAISARYQMVRESEYLLQPIEWYRFNDQLLAYNVRSGEWIRIGVPSPMLARAGSSLVVFGDILFYIGGELKPGVLEHHHHHH | not soluble
MRYAEVLIPLALEGSFHYRLAEGLAEKAIVGMRCVVPFGAKRYYTGIIIGLSDKRPNLQISFKEVLFLPDDKPSVTASQLSLWQWLSAYYICTQGEVLRAALPAALLPESHTVIHYNTDFEADSRLSRDEEELLDILESAKGRTYTLDALQKAVGKRAIRAFTSLVERGAIRLEEEVKSRYKPKSEVFVRLAEPFRTEKTFASLLDSLHRAPKQSALLLHWAELITEHSLPYSSPMPQRLLAESDPHATVTLSALKKKGIFLSESVTHSVMYSAGGGEYRLWEQPQEEEKAIQSEESSTDSAVSASLPQKPLSLLYTHDFRRKEKQLLEWTEEVVRSGGQVLYLSPEANKRGGSDTLSTRMAERLGSCLLSYHAFESDAKRVEVWNRLATTEYPCVVLGVRSALFLPFRRLRLIIVDEEQEYLYKQQDPAPRFHTRQVAARLGRIHDCPVVLASATPSAEVLHQVRHKACELITWPDDRVRPRFDLEVIDMGKMRRQRQVGAGELLSFPLVSAIEETIRQKKMAVVLQNRRGFAPYIICSSCGEKLRCIHCDVSLTYHKHSCMLVCHYCGYSRPLPRICPSCKRASGVGEPSSLQPVGYGAERIEEELKRRFPTVSILRMDSDMAMSRTKMDEALARLEAKEVDILVGTQLIKGQVYNEHVGLVAVTQLDSILGFPDFRAYERAYQLLYQLMLRSGASRLYIQTNNPANSFPDLLREGDYKAFIGKQLEERQMLFFPPFSRLIRIEFRAGEESLVERIASDYAASLAAHLPEQSLSPVLVPPISRLRNAFIRELLLRLPLSSSVSATRNILDTIRTTLQTRTQEYKRVRILFDVDPL | not soluble
MRYIRLCIISLLATLPLAVHASPQPLEQIKLSESQLSGRVGMIEMDLASGRTLTAWRADERFPMMSTFKVVLCGAVLARVDAGDEQLERKIHYRQQDLVDYSPVSEKHLADGMTVGELCAAAITMSDNSAANLLLATVGGPAGLTAFLRQIGDNVTRLDRWETELNEALPGDARDTTTPASMAATLRKLLTSQRLSARSQRQLLQWMVDDRVAGPLIRSVLPAGWFIADKTGAGERGARGIVALLGPNNKAERIVVIYLRDTPASMAERNQQIAGIGAALIEHWQR | soluble
MRYPIMNNFFKIHDNLLRNLSPSLRRGLMDEIDWNDRLIGIKGARGMGKTTFLLDYARENFGIGNRKCLYINLNQLYFTTESLVNFAGEFVKQGGEVLLLDQVFKYPNWSIELRQCMELYPDLRIVFTGSTVMRLKEENPELNGLVTSYVLNGFSFREFLNLKTGLSLQPYSFDEIVSNHEQIAPRILEQVNPLDWFQDYLHHGYYPIFLEDKNYSESLLKTLNMTLEVDVLFIRQIEQRFLHKLRKLLYLLGQRAPGSLNISSIAKEVDTSRTTITNYLKYLSEARLIKELHREEETGAKKPAMIYLDNTNVGYVIQPEPLNYIDVLKTFFLNQVKSRNEVCLGSRSQIAFCVNRQYQFCIDEKMSRRYRPDRYYAIQNMRSGTRNMIPLWLFGFLY | not soluble
MSAATATRSQLALQSYLDALLQEATFEDLEPLVETPPAPAPAPLKPVALAVAEVATPAPALETLPVDHGFDEFEAAVLEEQVRDARLVPPAPAALLDEPTTLRELPVEPRPHEVIELRVPSAPASVGEPPLLDLPLLDDGRPAWAAEPFECLLFD | soluble
MSAEAADREAVSGSRPCTPPQTSWFEFLLNPSLLEQHLHSPHPDPSPVQLIFQFLEQASKPSVNEQNQVQPPVDNRRNRTLKLMALKVAAHLRWDLNMLEKGLTIPVLNMLLNELLCVSHVPPGVKHVDLDLSSLPPTTAMAVVFYNRWAIRTIVLSSFPEKQTKPGPHQLNMMNMLQQEKEHTENILSVLREQATDSIMVLEGALSIKKDFYIHL | not soluble
MSAEMTVEGMISVFMKIRKVYADEFGRMLGNETYSPNEISILLFLANNPSIDTNSQLCTCLGVSKALVCRSVDALLGKEMIISVADDHDKRVQHLKLTEHALPVIEQLGGIKRKIDQEILEGIPEEDIANMANTMEKIFARFEERAKGKESSL | not soluble
MSAEQDKEPIALKRVRGGDSGLDGLGGPNIQLGSPDKKKRKANTQGSSFPPLSEYAPPPNPNSDHLVAANPFDDSYNTISYKPLPSSNPYLGPGYPGFGGYSTFRMPPHVPPRMSSPYCGPYSLRNQPHPFPQNPLGMGFNRPHAFNFGPHDNSNFGNPPYNNVLTQDINMPGQHFRQGSAENFSQIPPQNVGQVSNPDLASNFAPGNNSNFTSPLETNHSFIPPPNAFGQAKAPLPKQDFTQGATKTPNQNSSTHPPHLNMEDPVNQSNVELKNVNRNNVVQENSRSGSAEATNNHANGTQNKPRQPRGAADLCTPDKSRKFSLLPSRHGHSSSDPVYPCGICTNEVNDDQDAILCEASCQKWFHRICTGMTETAYGLLTAEASAVWGCDTCMADKDVQLMRTREAFGPPAVGGDA | soluble
